Experimental data taken from patent US20230265217A1.

Tests used:
Settings in all cases: remark: other sources report otherwise
[1] = biological target: S1 RBD L452R E484Q (Acro) (SARS-CoV-2), P0DTC2; test: Carterra SPR
[2] = biological target: T1, SARS-CoV-2 S protein trimer (Beta B.1.351 SA variant) [SPN-C52Hk] (SARS-CoV-2), P0DTC2; test: binding kinetics, Carterra SPR
[3] = biological target: SARS-CoV-2 S protein trimer [SPN-C52H9] (SARS-CoV-2), P0DTC2; test: binding kinetics, Carterra SPR
[4] = biological target: T2, SARS-CoV-2 S protein trimer (Kappa B.1.617.1 India variant) [SPN-C52Hr] (SARS-CoV-2), P0DTC2; test: binding kinetics, Carterra SPR
[5] = biological target: T3, SARS-CoV-2 S protein trimer (Delta B.1.617.2 India variant) [SPN-C52He] (SARS-CoV-2), P0DTC2; test: binding kinetics, Carterra SPR
[6] = biological target: T4, SARS-CoV-2 S protein trimer (Alpha B.1.1.7 UK variant) [SPN-C52H6] (SARS-CoV-2), P0DTC2; test: binding kinetics, Carterra SPR
[7] = biological target: T1, SARS-CoV-2 S protein trimer (Beta …); test: Carterra SPR
[8] = biological target: T2, SARS-CoV-2 S protein trimer (Kappa …); test: Carterra SPR
[9] = biological target: SARS-CoV-2 S protein trimer [SPN-C52H7] (SARS-CoV-2), P0DTC2; test: Carterra SPR
[10] = biological target: T3, SARS-CoV-2 S protein trimer (Delta …); test: Carterra SPR
[11] = biological target: T4, SARS-CoV-2 S protein trimer (Alpha …); test: Carterra SPR
[12] = biological target: SARS-CoV-2 S protein trimer (P.1 Gamma Brazil variant) [SPN-C52Hg] (SARS-CoV-2), P0DTC2; test: Carterra SPR

B1: 7-26 (VHH)
VHH: EVQLVESGGGLVQPGGSLRLSCAASGSTFSINAMGWFRQAPGKEREFVAGITSSGGYTNYADSVKGRFTISADNSKNTAYLQMNSLKPEDTAVYYCAADGVPEYSDYASGPVWGQGTLVTVSS
With B1 the Kd [1] was 18 nM, the Kd [2] was < 0.00808 nM and the koff [2] was < 1e-05 s⁻¹. The kon [2] was 1.24e+06 M⁻¹ s⁻¹, the Kd [3] was < 0.011 nM and the koff [3] was < 1e-05 s⁻¹. For the same binder, the kon [3] was 911000 M⁻¹ s⁻¹, the Kd [4] was < 0.00852 nM and the koff [4] was < 1e-05 s⁻¹. The kon [4] was 1.17e+06 M⁻¹ s⁻¹, the Kd [5] was < 0.0104 nM and the koff [5] was < 1e-05 s⁻¹. The kon [5] was 958000 M⁻¹ s⁻¹, the Kd [6] was < 0.00965 nM and the koff [6] was < 1e-05 s⁻¹. For the same binder, the kon [6] was 1.04e+06 M⁻¹ s⁻¹.

B2: 3-31 (VHH)
VHH: B1 VHH
Binder B2 has a Kd [7] of 0.0117 nM, a koff [7] of 1e-05 s⁻¹ and a kon [7] of 851000 M⁻¹ s⁻¹. The Kd [8] was 0.0129 nM, the koff [8] was 1e-05 s⁻¹ and the kon [8] was 777000 M⁻¹ s⁻¹. For the same binder, the Kd [9] was < 0.0167 nM, the koff [9] was < 1e-05 s⁻¹ and the kon [9] was 600000 M⁻¹ s⁻¹. For the same binder, the Kd [10] was 0.0134 nM, the koff [10] was 1e-05 s⁻¹ and the kon [10] was 744000 M⁻¹ s⁻¹. It also gave a Kd [11] of 0.0143 nM, a koff [11] of 1e-05 s⁻¹ and a kon [11] of 699000 M⁻¹ s⁻¹. The Kd [12] was < 0.012 nM, the koff [12] was < 1e-05 s⁻¹ and the kon [12] was 834000 M⁻¹ s⁻¹. The Kd [1] was 16.2 nM, the Kd [2] was < 0.0098 nM and the koff [2] was < 1e-05 s⁻¹. The kon [2] was 1.02e+06 M⁻¹ s⁻¹, the Kd [3] was < 0.0136 nM and the koff [3] was < 1e-05 s⁻¹. For the same binder, the kon [3] was 734000 M⁻¹ s⁻¹, the Kd [4] was < 0.01 nM and the koff [4] was < 1e-05 s⁻¹. The kon [4] was 1e+06 M⁻¹ s⁻¹, the Kd [5] was < 0.0107 nM and the koff [5] was < 1e-05 s⁻¹. For the same binder, the kon [5] was 938000 M⁻¹ s⁻¹, the Kd [6] was < 0.0108 nM and the koff [6] was < 1e-05 s⁻¹. The kon [6] was 925000 M⁻¹ s⁻¹.
